How the values were obtained:
Type in all cases: cell-based, human
IL-8 = IL-8 production by keratinocytes (ELISA); conditions: HaCaT and HEKn cells subjected to immune stimuli, ELISA
Description: (§1) To measure the concentrations of proinflammatory cytokines secreted by keratinocytes, 2×10^4 cells were seeded in 96-well plates. Cells were incubated for 24 hours and then treated with 50 μg/ml LPS, 100 ng/ml human TNF-α, 100 or 200 ng/ml human IL-17A, 200 ng/ml human IL-22, 100 ng/ml human IL-23, or 50 ng/ml IFN-γ at 37° C. for 48 hours. In addition, the MEK inhibitor PD98059 was added along with stimulation by LPS or IL-17A (48 hours). The supernatants were then collected and analyzed by ELISAs, which were performed using a specific combination of paired antibodies (capture and detection antibodies).

galectin-7 = assay: Galectin-7 expression in keratinocytes (real-time PCR, immunoblot); conditions: HaCaT cells, treated with cytokines for 2 days, immunoblot
Description: Human keratinocyte cell line HaCaT was maintained at 37° C. in Dulbecco's modified Eagle's medium (DMEM) supplemented with 10% of fetal bovine serum (FBS), 2 mM glutamine, 100 U/ml penicillin and 100 μg/ml streptomycin. Short hairpin RNA (shRNA) reagents were obtained from the National RNAi Core Facility located at the Institute of Molecular Biology and Genomic Research Center, Academia Sinica, supported by the National Core Facility Program for Biotechnology Grants of NSC. Four shRNAs with clone IDs of TRCN0000057393, TRCN0000057394, TRCN0000057395, and TRCN0000057396 were used to generate stable galectin-7 knockdown HaCaT clones. HaCaT cells were infected with one of the four shRNA-expressing lentiviruses and puromycin was employed to select stable cell clones after 3 days of infection. After puromycin selection, four individual pooled clones were cultured in puromycin-free medium for 2 weeks before further analysis. […]
Cells were harvested and lysed in RIPA lysis buffer containing 1% of Triton X-100 and a protease inhibitor cocktail, and total protein concentrations were measured with a protein assay kit. Proteins in the samples of the lysates with the same amounts of total protein were separated by sodium dodecyl sulfate polyacrylamide gel electrophoresis (SDS-PAGE) and analyzed by immunoblotting. […] Protein quantification was performed by software. […]

IL-6 = IL-6 production by keratinocytes (ELISA); conditions: HaCaT and HEKn cells subjected to immune stimuli, ELISA
Description: as §1

Molecule	IL-8 production (IL-8)	galectin-7 protein expression (galectin-7)	IL-6 production (IL-6)
IL-23: cytokine known to promote psoriatic inflammation (protein, UniProt Q9NPF7 20-189; P29460 23-328, looked up) Interleukin-23 subunit alpha: RAVPGGSSPAWTQCQQLSQKLCTLAWSAHPLVGHMDLREEGDEETTNDVPHIQCGDGCDPQGLRDNSQFCLQRIHQGLIFYEKLLGSDIFTGEPSLLPDSPVGQLHASLLGLSQLLQPEGHHWETQQIPSLSPSQPWQRLLLRFKILRSLQAFVAVAARVFAHGAATLSP Interleukin-12 subunit beta: IWELKKDVYVVELDWYPDAPGEMVVLTCDTPEEDGITWTLDQSSEVLGSGKTLTIQVKEFGDAGQYTCHKGGEVLSHSLLLLHKKEDGIWSTDILKDQKEPKNKTFLRCEAKNYSGRFTCWWLTTISTDLTFSVKSSRGSSDPQGVTCGAATLSAERVRGDNKEYEYSVECQEDSACPAAEESLPIEVMVDAVHKLKYENYTSSFFIRDIIKPDPPKNLQLKPLKNSRQVEVSWEYPDTWSTPHSYFSLTFCVQVQGKSKREKKDRVFTDKTSATVICRKNASISVRAQDRYYSSSWSEWASVPCS	only IL-17A (FIG. 2), TNF-α, and LPS (data not shown) induced	modest effects	only IL-17A (FIG. 2), TNF-α, and LPS (data not shown) induced
IL-22: immune stimulus (protein, UniProt Q9GZX6 34-179, looked up) Interleukin-22: APISSHCRLDKSNFQQPYITNRTFMLAKEASLADNNTDVRLIGEKLFHGVSMSERCYLMKQVLNFTLEEVLFPQSDRFQPYMQEVVPFLARLSNRLSTCHIEGDDLHIQRNVQKLKDTVKKLGESGEIKAIGELDLLFMSLRNACI	only IL-17A (FIG. 2), TNF-α, and LPS (data not shown) induced		only IL-17A (FIG. 2), TNF-α, and LPS (data not shown) induced

Source: patent US11286304B2, “Anti-galectin-7 antibody, kit comprising the same, and uses thereof” (Academia Sinica, priority 2018, dated 2022)
